Biological target: Nup170p (recombinant, released from GST by thrombin) (S. cerevisiae, UniProt P38181 1-1502)
Assay: pull-down

Nup170p (recombinant, released from GST by thrombin), sequence (P38181 whole entry): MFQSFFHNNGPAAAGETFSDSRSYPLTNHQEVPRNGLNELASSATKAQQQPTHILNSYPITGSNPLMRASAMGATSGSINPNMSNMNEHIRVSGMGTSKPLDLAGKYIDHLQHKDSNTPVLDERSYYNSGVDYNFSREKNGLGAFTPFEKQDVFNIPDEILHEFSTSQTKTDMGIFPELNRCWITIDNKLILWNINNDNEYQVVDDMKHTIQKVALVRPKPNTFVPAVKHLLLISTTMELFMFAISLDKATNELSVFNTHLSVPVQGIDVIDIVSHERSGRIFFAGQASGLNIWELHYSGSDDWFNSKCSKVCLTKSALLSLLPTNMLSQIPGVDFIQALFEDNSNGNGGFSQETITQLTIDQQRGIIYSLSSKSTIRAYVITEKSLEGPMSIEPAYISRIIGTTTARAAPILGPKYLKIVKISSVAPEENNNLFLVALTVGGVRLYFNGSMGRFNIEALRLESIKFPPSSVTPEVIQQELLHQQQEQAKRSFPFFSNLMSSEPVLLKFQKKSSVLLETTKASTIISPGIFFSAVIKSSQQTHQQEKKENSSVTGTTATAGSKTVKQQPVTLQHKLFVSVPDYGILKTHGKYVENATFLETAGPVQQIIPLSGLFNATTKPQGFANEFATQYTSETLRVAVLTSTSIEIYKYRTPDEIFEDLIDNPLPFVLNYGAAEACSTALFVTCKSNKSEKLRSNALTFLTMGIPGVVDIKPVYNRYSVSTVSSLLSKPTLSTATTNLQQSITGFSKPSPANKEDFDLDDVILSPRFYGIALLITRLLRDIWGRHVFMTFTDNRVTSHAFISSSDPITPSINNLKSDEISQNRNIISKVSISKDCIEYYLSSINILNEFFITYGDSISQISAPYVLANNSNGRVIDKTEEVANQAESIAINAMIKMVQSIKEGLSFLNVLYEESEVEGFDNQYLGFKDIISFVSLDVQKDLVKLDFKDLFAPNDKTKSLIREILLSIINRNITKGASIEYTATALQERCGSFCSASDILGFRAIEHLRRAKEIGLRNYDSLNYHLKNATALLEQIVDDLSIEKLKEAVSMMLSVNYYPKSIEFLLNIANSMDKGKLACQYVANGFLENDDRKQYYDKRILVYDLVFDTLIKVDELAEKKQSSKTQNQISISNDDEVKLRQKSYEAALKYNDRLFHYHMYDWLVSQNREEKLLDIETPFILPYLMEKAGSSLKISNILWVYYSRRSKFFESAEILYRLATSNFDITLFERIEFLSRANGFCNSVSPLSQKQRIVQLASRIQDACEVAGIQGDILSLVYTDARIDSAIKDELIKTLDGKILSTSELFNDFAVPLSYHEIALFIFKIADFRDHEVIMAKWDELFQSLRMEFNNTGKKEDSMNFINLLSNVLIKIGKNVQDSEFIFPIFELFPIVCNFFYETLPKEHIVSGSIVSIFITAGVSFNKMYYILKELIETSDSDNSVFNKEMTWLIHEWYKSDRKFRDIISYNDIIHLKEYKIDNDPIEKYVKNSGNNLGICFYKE

- binding result: binds
B1: GST-Pom152p^1-111 (domain or fragment, S. cerevisiae, UniProt P39685 1-111, looked up)
chain: MEHRYNVFNDTPRGNHWMGSSVSGSPRPSYSSRPNVNTTRRFQYSDDEPAEKIRPLRSRSFKSTESNISDEKSRISERDSKDRYINGDKKVDIYSLPLISTDVLEISKQRT

Source: paper PMC2700392 (The Journal of Cell Biology, 2009)
